Patent EP2168984B1 (Abbott GmbH & Co. KG, dated 2012)
Where a chain is given by its changes, count along the chain named. Names may count otherwise. One block for each binder: values may come before it.

Experiments:
[1] = molecular target: T1, Cyno IL-12 (cynomolgus monkey); assay: cell-based or functional assay
T1 chain 1: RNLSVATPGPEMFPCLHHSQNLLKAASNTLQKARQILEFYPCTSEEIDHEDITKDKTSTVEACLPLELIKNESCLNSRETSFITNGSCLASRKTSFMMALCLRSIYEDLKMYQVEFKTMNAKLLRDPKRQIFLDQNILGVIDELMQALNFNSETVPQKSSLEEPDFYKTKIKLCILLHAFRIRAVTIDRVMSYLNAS
T1 chain 2: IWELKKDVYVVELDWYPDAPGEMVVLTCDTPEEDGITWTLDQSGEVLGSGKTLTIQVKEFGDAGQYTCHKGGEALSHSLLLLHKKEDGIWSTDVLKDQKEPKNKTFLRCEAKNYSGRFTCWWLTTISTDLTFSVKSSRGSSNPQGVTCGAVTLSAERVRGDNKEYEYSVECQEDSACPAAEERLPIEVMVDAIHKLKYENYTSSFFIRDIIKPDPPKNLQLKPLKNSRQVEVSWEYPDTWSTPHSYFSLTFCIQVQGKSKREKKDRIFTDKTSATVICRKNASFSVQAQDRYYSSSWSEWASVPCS

[2] = molecular target: T2, recombinant human IL-12 (human, UniProt P29459 23-219; P29460 23-328); assay: cell-based or functional assay
T2 sequence (looked up) 1: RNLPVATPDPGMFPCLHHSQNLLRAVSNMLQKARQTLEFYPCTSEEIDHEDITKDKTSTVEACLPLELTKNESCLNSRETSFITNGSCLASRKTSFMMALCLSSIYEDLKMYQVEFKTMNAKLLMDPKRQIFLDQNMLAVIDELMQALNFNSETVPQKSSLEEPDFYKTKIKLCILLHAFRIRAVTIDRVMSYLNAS
T2 sequence (looked up) 2: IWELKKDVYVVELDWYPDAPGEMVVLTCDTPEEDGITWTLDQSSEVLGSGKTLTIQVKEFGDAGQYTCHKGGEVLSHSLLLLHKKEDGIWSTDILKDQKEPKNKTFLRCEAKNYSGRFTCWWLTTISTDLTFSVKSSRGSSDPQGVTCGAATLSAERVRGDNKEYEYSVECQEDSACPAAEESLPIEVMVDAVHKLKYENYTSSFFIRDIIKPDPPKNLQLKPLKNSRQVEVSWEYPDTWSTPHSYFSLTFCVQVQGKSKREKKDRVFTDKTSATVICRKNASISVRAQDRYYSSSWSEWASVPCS

[3] = molecular target: T3, recombinant human IL-12 (human, UniProt P29459 23-219; P29460 23-328); assay: BIAcore SPR, immobilised IL-12
T3 construct: disulfide-linked p35/p40 heterodimer; also called hIL-12; rhIL-12
T3 sequence (looked up) 1: T2 sequence (looked up) 1
T3 sequence (looked up) 2: T2 sequence (looked up) 2

[4] = molecular target: T2, recombinant human IL-12; assay: cell-based or functional assay; remark: listed apart in the source
[5] = molecular target: T4, Dog IL-12 (dog, UniProt Q28267 26-222; Q28268 23-329); assay: cell-based or functional assay
T4 sequence (looked up) 1: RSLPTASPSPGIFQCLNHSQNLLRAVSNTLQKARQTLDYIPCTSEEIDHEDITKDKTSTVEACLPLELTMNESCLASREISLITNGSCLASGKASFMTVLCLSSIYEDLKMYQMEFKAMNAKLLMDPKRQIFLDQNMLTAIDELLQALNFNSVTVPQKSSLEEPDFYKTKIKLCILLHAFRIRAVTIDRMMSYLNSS
T4 sequence (looked up) 2: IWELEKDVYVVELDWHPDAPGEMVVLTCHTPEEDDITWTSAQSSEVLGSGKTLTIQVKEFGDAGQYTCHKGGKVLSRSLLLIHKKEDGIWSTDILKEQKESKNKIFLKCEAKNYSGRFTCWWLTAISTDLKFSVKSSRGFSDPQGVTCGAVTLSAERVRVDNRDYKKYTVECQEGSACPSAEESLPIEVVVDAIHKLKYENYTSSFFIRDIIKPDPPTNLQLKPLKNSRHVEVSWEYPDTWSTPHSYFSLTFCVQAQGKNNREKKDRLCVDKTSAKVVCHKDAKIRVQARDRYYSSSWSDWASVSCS

[6] = molecular target: T5, Rhesus IL-12 (rhesus monkey, UniProt P48091 23-219; P48095 23-328); assay: cell-based or functional assay
T5 sequence (looked up) 1: T1 chain 1
T5 sequence (looked up) 2: T1 chain 2

[7] = molecular target: T6, Baboon IL-12 (baboon); assay: cell-based or functional assay
T6 chain 1: T1 chain 1 with F82V, N85K, K110Q, M111I, R125M, K172R
T6 chain 2: T1 chain 2 with V230A

[8] = molecular target: T2, recombinant human IL-12; assay: cell-based or functional assay; remark: listed apart in the source

IC50 (M), species cross reactivity bioassay [1]: 2.2e-10 M | IC50 (M), species cross reactivity bioassay [2]: 1.7e-10 M
B1: Y61 IgG (antibody, V domains shown)
VH: QVQLVQSGGGVVQPGRSLRLSCAASGFTFSSYGMHWVRQAPGKGLEWVAFIRYDGSNKYYADSVKGRFTISRDNSKNTLYLQMKSLRAEDTAVYYCKTHGSHDNWGQGTMVTVSS
VL: SYVLTQPPSVSGTPGQRVTISCSGGRSWIGSNTVKWYQQLPGTAPKLLIYGNDQRPSGVPDRFSGSKSGTSASLAITGVQAEDEADYYCQSYDRGTHPALLFGTGTKVTVLG

koff [3]: 0.344 s⁻¹
B2: 177-H10 (scFv, V domains shown)
VH: B1 VH
VL: SYVLTQPPSVSGTPGQRVTISCSGGRSNIGSNTVKWYQQLPGTAPKLLIYGNDQRPSGVPDRFSGSKSGTSASLAITGVQAEDEADYYCQSYDRGTHPTMYFGTGTKVTVL

IFN gamma IC50 [4]: 0.16 nM
B3: Y139 (scFv, V domains shown)
VH: B1 VH
VL: B2 VL with T96S, T99A, M100L, Y101T

IC50 (M), species cross reactivity bioassay [5]: 3.5e-10 M | IC50 (M), species cross reactivity bioassay [1]: 1e-11 M | IC50 (M), species cross reactivity bioassay [6]: 1e-11 M | IC50 (M), species cross reactivity bioassay [2]: 5e-12 M | IC50 (M), species cross reactivity bioassay [7]: 1.5e-11 M | PHA blast Assay IC50 [8]: 0.0058 nM
B4: J695 (Y61-L94Y- L50Y IgG*) (antibody, V domains shown)
VH: B1 VH with Q6E, K84N
VL: B1 VL with S1Q, Y2S, T13A, G25S, W28N, G51Y, V79L, G95Y
